Reference: patent US20180017550A1

Assays:
[1] = target: wild-type human APC segment 3 of Exon 15 (codons 1,099 to 1,696) with N-terminal VSV-G and HSV epito (human) (UniProt P25054)
[2] = target: human dihydrofolate reductase (DHFR), cell-free expressed with C-terminal HSV and polyhistidine epitope tags (human) (UniProt P00374); assay: antibody-protein complex photo-released from beads, held on nickel chelate plate by the protein's polyhistidine tag; bound anti-HSV antibody read with anti-[mouse IgG] HRP; against the minus DNA negative control
[3] = target: human glutathione-s-transferase A2 (GST A2), cell-free expressed from pETBlue-2 with C-terminal HSV epitope tag and polyhistidine tag (human) (UniProt P09210); assay: as above
Chain of human glutathione-s-transferase A2 (GST A2), cell-free expressed from pETBlue-2 with C-terminal HSV epitope tag and polyhistidine tag (human) (P09210 other isoform, or with tags, fused parts or gaps): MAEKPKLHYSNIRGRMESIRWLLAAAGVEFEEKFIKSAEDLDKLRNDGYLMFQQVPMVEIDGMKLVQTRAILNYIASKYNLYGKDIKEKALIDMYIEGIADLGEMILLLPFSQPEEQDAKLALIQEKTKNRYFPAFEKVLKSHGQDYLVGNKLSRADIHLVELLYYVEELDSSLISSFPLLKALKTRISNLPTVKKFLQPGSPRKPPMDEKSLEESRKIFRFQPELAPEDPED

[4] = target: human glutathione-s-transferase A2 (GST A2), cell-free expressed from pETBlue-2 with C-terminal HSV epitope tag and polyhistidine tag (human) (UniProt P09210); assay: cell-free expressed HSV-tagged GST captured on anti-HSV PC-antibody NeutrAvidin agarose beads; fractions quantified by fluorescence SDS-PAGE
[5] = target: human glutathione-s-transferase A2 (GST A2), cell-free expressed from pETBlue-2 with C-terminal HSV epitope tag and polyhistidine tag (human) (UniProt P09210); assay: BODIPY-FL labelled GST photo-released from magnetic beads and captured on anti-HSV antibody coated substrate; against the minus DNA blank
[6] = target: human p53 oncoprotein (cellular tumor antigen p53), cell-free expressed from pETBlue-2 with C-terminal HSV epitope tag and polyhistidine tag (human) (UniProt P04637); assay: protein adsorbed to polystyrene 96-well plate, anti-HSV-AP chemiluminescence; against the minus DNA negative control
[7] = target: human alpha-tubulin, cell-free expressed with C-terminal HSV epitope tag and polyhistidine tag (human) (UniProt P50607); assay: as above

Chain of wild-type human APC segment 3 of Exon 15 (codons 1,099 to 1,696) with N-terminal VSV-G and HSV epito (human) (P25054 other isoform, or with tags, fused parts or gaps limits assumed): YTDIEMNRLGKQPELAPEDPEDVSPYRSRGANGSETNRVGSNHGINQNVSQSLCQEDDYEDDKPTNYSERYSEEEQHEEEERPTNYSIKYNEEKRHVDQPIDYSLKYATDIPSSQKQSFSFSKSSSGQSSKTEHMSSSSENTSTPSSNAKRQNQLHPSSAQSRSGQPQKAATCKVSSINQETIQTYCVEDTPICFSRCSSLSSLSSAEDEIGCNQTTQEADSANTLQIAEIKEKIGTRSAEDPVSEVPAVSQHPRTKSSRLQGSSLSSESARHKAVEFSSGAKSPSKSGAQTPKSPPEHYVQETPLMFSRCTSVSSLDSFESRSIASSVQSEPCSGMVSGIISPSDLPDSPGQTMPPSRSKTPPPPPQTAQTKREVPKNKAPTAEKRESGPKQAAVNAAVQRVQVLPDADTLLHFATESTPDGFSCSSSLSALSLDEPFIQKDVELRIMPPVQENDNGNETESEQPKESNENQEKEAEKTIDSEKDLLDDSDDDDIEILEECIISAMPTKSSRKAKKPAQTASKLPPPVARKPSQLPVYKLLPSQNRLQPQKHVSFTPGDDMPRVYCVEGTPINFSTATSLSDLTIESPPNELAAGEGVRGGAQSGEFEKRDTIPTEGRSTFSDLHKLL

Row | signal to noise ratio [2] | signal to noise ratio [3] | percent of total GST bound [4] [%] | percent of total GST not bound [4] [%] | signal to noise ratio [5] | signal to noise ratio [6] | signal to noise ratio [7] | Substance | signal to noise ratio [1]
1 | – | – | – | – | – | – | – | anti-VSV antibody conjugated to the Cy3 fluorophore (clone P5D4; Sigma-Aldrich, St. Louis, Mo.) | 186 :1
2 | 19 :1 | 108 :1 | 75 | 25 | 9 :1 | 609 :1 | 140 :1 | mouse monoclonal anti-HSV tag antibody (EMD Biosciences, Inc., San Diego, Calif.) | –
